biological target: HLA-A*02:01 (Homo sapiens, UniProt P04439, D140Y/D185E/D98H/E176V/E277Q/G131W/G231S/I119V/I121R/I166T/I218V/L300P/L318F/N151K/N90K/P208A/P217A/Q86G/Q94H/R138H/R169H/T345S); assay: MHC binding assay (UV-ligand exchange, β2m ELISA, peptide exchange yield); settings: binding of HLA-class I restricted peptides to HLA-A*02:01, UV-ligand exchange
How it was run: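 Yield of stabilized complexes quantified via the β2m light chain in an ELISA (streptavidin capture, 100-fold diluted monomers, HRP anti-β2m 2 ug/ml at 37 °C, TMB, A450). The complexes come from UV-triggered replacement of a photocleavable ligand by the candidate peptide.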

| Substance | Peptide exchange (MHC class I binding score, peptide exchange yield) |
| --- | --- |
| 332 (YLISELEAA; listed as Homo sapiens) [compound 332] | “+++” (≥50 = +++) |
| 142 (FLFATPVFI; listed as Homo sapiens) [compound 142] | “+++” (≥50 = +++) |
| 46 (ILTEENIHL; listed as Homo sapiens) [compound 46] | “+++” (≥50 = +++) |
| 603 (FLIEPEHVNTV; listed as Homo sapiens) [compound 603] | “++” (≥20% = ++) |
| 601 (SAFPFPVTV; listed as Homo sapiens) [compound 601] | “+++” (≥50 = +++) |
| 455 (SLLKEPQKVQL; listed as Homo sapiens) [compound 455] | “++” (≥20% = ++) |
| 513 (SLWPSPEQL; listed as Homo sapiens) [compound 513] | “++” (≥20% = ++) |
| 11 (KIFEMLEGV; listed as Homo sapiens) [compound 11] | “+++” (≥50 = +++) |
| 64 (YAAPGGLIGV; listed as Homo sapiens) [compound 64] | “++” (≥20% = ++) |
| 258 (ELAERVPAI; listed as Homo sapiens) [compound 258] | “++” (≥20% = ++) |
| 271 (LVYPLELYPA; listed as Homo sapiens) [compound 271] | “+++” (≥50 = +++) |
| 527 (FLLEPGNLEV; listed as Homo sapiens) [compound 527] | “++++” (≥75% = ++++) |
| 170 (RLQETLSAA; listed as Homo sapiens) [compound 170] | “+++” (≥50 = +++) |
| 199 (ALQDVPLSSV; listed as Homo sapiens) [compound 199] | “+++” (≥50 = +++) |
| 476 (ALMERTGYSMV; listed as Homo sapiens) [compound 476] | “+++” (≥50 = +++) |
| 607 (RLYSGISGLEL; listed as Homo sapiens) [compound 607] | “+++” (≥50 = +++) |
| 122 (FLLAEDDIYL; listed as Homo sapiens) [compound 122] | “+++” (≥50 = +++) |
| 583 (ILANDGVLLAA; listed as Homo sapiens) [compound 583] | “+++” (≥50 = +++) |
| 212 (ALWDQDNLSV; listed as Homo sapiens) [compound 212] | “++” (≥20% = ++) |
| 169 (NLPEYLPFV; listed as Homo sapiens) [compound 169] | “+++” (≥50 = +++) |
| 330 (QLALKVEGV; listed as Homo sapiens) [compound 330] | “+++” (≥50 = +++) |
| 467 (FLAKDFNFL; listed as Homo sapiens) [compound 467] | “+++” (≥50 = +++) |

| Substance | Peptide exchange (MHC class I binding score, peptide exchange yield) |
| --- | --- |
| 387 (ALFQATAEV; listed as Homo sapiens) [compound 387] | “++++” (≥75% = ++++) |
| 584 (ALAEVAAMENV; listed as Homo sapiens) [compound 584] | “+++” (≥50 = +++) |
| 522 (TLWYRSPEV; listed as Homo sapiens) [compound 522] | “++” (≥20% = ++) |
| 615 (VLPPDTDPA; listed as Homo sapiens) [compound 615] | “++” (≥20% = ++) |
| 541 (SMLEPVPEL; listed as Homo sapiens) [compound 541] | “+++” (≥50 = +++) |
| 279 (ALWGGTQPLL; listed as Homo sapiens) [compound 279] | “++” (≥20% = ++) |
| 96 (YIFTDNPAAV; listed as Homo sapiens) [compound 96] | “+++” (≥50 = +++) |
| 284 (ILLSQTTGV; listed as Homo sapiens) [compound 284] | “+++” (≥50 = +++) |
| 521 (MLLTKLPTI; listed as Homo sapiens) [compound 521] | “+++” (≥50 = +++) |
| 215 (QLINHLHAV; listed as Homo sapiens) [compound 215] | “+++” (≥50 = +++) |
| 14 (AAYGGLNEKSFV; listed as Homo sapiens) [compound 14] | “+++” (≥50 = +++) |
| 329 (FLVTLNNVEV; listed as Homo sapiens) [compound 329] | “++++” (≥75% = ++++) |
| 616 (VLIDEVESL; listed as Homo sapiens) [compound 616] | “+++” (≥50 = +++) |
| 546 (VMIAGKVAVV; listed as Homo sapiens) [compound 546] | “+++” (≥50 = +++) |
| 216 (NLWEDPYYL; listed as Homo sapiens) [compound 216] | “+++” (≥50 = +++) |
| 74 (ALLDPEVLSIFV; listed as Homo sapiens) [compound 74] | “+++” (≥50 = +++) |
| 322 (TLMTSLPAL; listed as Homo sapiens) [compound 322] | “+++” (≥50 = +++) |
| 92 (YLIPFTGIVGL; listed as Homo sapiens) [compound 92] | “++” (≥20% = ++) |
| 48 (ALAELYEDEV; listed as Homo sapiens) [compound 48] | “+++” (≥50 = +++) |
| 594 (IMLKGDNITL; listed as Homo sapiens) [compound 594] | “+++” (≥50 = +++) |
| 119 (FLYIGDIVSL; listed as Homo sapiens) [compound 119] | “++++” (≥75% = ++++) |
| 197 (ALGPEGGRV; listed as Homo sapiens) [compound 197] | “++” (≥20% = ++) |

| Substance | Peptide exchange (MHC class I binding score, peptide exchange yield) |
| --- | --- |
| 264 (SLQEQLHSV; listed as Homo sapiens) [compound 264] | “+++” (≥50 = +++) |
| 25 (FLPDEPYIKV; listed as Homo sapiens) [compound 25] | “+++” (≥50 = +++) |
| 144 (YIMEPSIFNTL; listed as Homo sapiens) [compound 144] | “+++” (≥50 = +++) |
| 390 (ALFMKQIYL; listed as Homo sapiens) [compound 390] | “+++” (≥50 = +++) |
| 557 (KLYDDMIRL; listed as Homo sapiens) [compound 557] | “+++” (≥50 = +++) |
| 432 (TLIEESAKV; listed as Homo sapiens) [compound 432] | “++” (≥20% = ++) |
| 107 (FLQPVDDTQHL; listed as Homo sapiens) [compound 107] | “+++” (≥50 = +++) |
| 366 (RLLDMGETDLML; listed as Homo sapiens) [compound 366] | “+++” (≥50 = +++) |
| 621 (VLMDRLPSLL; listed as Homo sapiens) [compound 621] | “++++” (≥75% = ++++) |
| 433 (AMLNEPWAV; listed as Homo sapiens) [compound 433] | “+++” (≥50 = +++) |
| 141 (YLDFSNNRL; listed as Homo sapiens) [compound 141] | “++” (≥20% = ++) |
| 602 (YLLEQIKLIEV; listed as Homo sapiens) [compound 602] | “++++” (≥75% = ++++) |
| 194 (ALPLFVITV; listed as Homo sapiens) [compound 194] | “+++” (≥50 = +++) |
| 568 (TLYDIAHTPGV; listed as Homo sapiens) [compound 568] | “++++” (≥75% = ++++) |
| 15 (VLLTFKIFL; listed as Homo sapiens) [compound 15] | “++” (≥20% = ++) |
| 514 (ILVDWLVQV; listed as Homo sapiens) [compound 514] | “+++” (≥50 = +++) |
| 407 (YLMDLINFL; listed as Homo sapiens) [compound 407] | “+++” (≥50 = +++) |
| 372 (TMLLNIPLV; listed as Homo sapiens) [compound 372] | “++” (≥20% = ++) |
| 129 (GLLDGGVDILL; listed as Homo sapiens) [compound 129] | “+++” (≥50 = +++) |
| 120 (ALLGIPLTLV; listed as Homo sapiens) [compound 120] | “+++” (≥50 = +++) |
| 63 (YLLPSGGSVTL; listed as Homo sapiens) [compound 63] | “++” (≥20% = ++) |
| 582 (TLCDVILMV; listed as Homo sapiens) [compound 582] | “+++” (≥50 = +++) |
